The text below walks through data of the DeepSol protein solubility set.

The data set in a line: soluble on expression in E. coli; label from the status in PepcDB or PDB records.
In the case of “MNPSVKIVVLSLPTATARRSQMSAMLGNTSLDWQYFDAHASLMCPNLHYDGAELRRHFGRNLSPPEIAVCSSHAAILQEFVDRNQADYILVLEDDVIFDTDFPLDQFCAFCASNGLEYVRLFGKHYAKAVHLGFFYDRSIVRFTTSPAGAQAYLMSRMAARRFLDSYQSIRATVDLAMDSFWITQLPIYSIFPYPIIERFSPTSIPMPPHTVEVRGLEHAIWQGARVVNKAKKILTNAKLRKSDESLRQRHWQFRQVGRVDVEQRRDPAAALEHHHHHH”, the “soluble on expression in E. coli” value is “soluble”.
In the case of “MGSDKIHHHHHHMRGIVLFPIINCSGAMVEITSTEMTPPVNDSHEFIPMRGIRNRHLQTMLPRLIRRKVKFNAHWQRLELPDGDFVDLAWSEDPQQAKYKPRLVVFHGLEGSLNSPYAHGLIEAAQKRGWLGVVMHFRGCSGEPNRLNRIYHSGETEDGAWFLRWLQREFGAVPTAAVGYSLGGNMLACLLAKEGRDIPIEAAVIVSAPFVLEACSYHMDKGFSRVYQRYLLNLLKANASRKLAAYPGSLPVNLAQLKSMRRIREFDDLITAKIHGFADAIDYYRQCSAMPLLNQIAKPTLIIHAKDDPFMDHHVIPKAEDLPPQVEYQLTEHGGHVGFIGGTPLRPEMWLERRIPDWLTTYLEASS”, the “soluble on expression in E. coli” value is on record as “not soluble”.
“MDLNATNYIRGCQSKTYDGKIFPGKGGEKQWICKDTIIHGDTNGACIPPRTQNLCVGELWDKSYGGRSNIKNDTKELLKEKIKNAIHKETELLYEYHDTGTAIISKNDKKGQKGKNDPNGLPKGFCHAVQRSFIDYKNMILGTSVNIYEHIGKLQEDIKKIIEKGTPQQKDKIGGVGSSTENVNAWWKGIEREMWDAVRCAITKINKKNNNSIFNGDECGVSPPTGNDEDQSVSWFKEWGEQFCIERLRYEQNIREACTINGKNEKKCINSKSGQGDKIQGACKRKCEKYKKYISEKKQEWDKQKTKYENKYVGKSASDLLKENYPECISANFDFIFNDNIEYKTYYPYGDYSSICSCEQVK”: the “soluble on expression in E. coli” value was “soluble”.
For the sequence “MELDVKFEEKDLQHIRQVFSRLRGLGKSDGLTRKMASVLQEDAEDAFAMERTPDGVKWRDLSPKYKKQRYNKGYTGNILQRHGDLAGSLNIAYGDNFAAVGVAEHYGEYHQLGTKKMSARPFLGISEDGVEEIKEILNNAIRRALRD”, the “soluble on expression in E. coli” value is on record as “not soluble”.
In the case of “KVILYARVSSSTQKDELVNQVKYLEEQVKEYDLVITDIGSGLNMKRKGFLKLLRMILNNEVSRVVVAYPDRLVRVGFEILEEVCKAHNCEIVVLNQEDKEEELVEDLMSALVSFSGKLYGMRSHEYEKVKKCAEELKNWKI”, the “soluble on expression in E. coli” value is recorded as “soluble”.
For “MERLQKVIARAGIASRRKAEELILQGRVKVNGRVVKELGVKVGPRDDVEVDGIPIEREEPVYYLLYKPRGVISSVKDDRGRKVVTDFFKDLDKRIYPIGRLDYDTSGLLLLTNDGDFANLLMHPRYEIEKVYIAKVKGIPTHEQLKRLEQGVQLEDGMTAPAKVKLLSADRKKGTAIVEIRIHEGRNRQVRRMFEAIGCEVLKLKRERYAFLDLKGLRPGEYRELTPHEVKLLRVLAQSGGRK” the value was “soluble”; for “MSLAKDKDTLDFIRNLCQKRHVCIQSSLAKVSSKKVNEKDVDKFLLYQHFSCNIRNIHHHQILAINRGENLKVLTVKVNISDGVKDEFCRWCIQNRWRPRSFARPELMKILYNSLNDSFKRLIYPLLCREFRAKLTSDAEKESVMMFGRNLRQLLLTSPVPGRTLMGVDPGYKHGCKLAIISPTSQILHTDVVYLHCGQGFREAEKIKTLLLNFNCSTVVIGNGTACRETEAYFADLIMKNYFAPLDVVYCIVSEAGASIYSVSPEANKEMPGLDPNLRSAVSIARRVQDPLAELVKIEPKHIGVGMYQHDVSQTLLKATLDSVVEECVSFVGVDINICSEVLLRHIAGLNANRAKNIIEWREKNGPFINREQLKKVKGLGPKSFQQCAGFIRINQDYIRTFCSQQTETSGQIQGVAVTSSADVEVTNEKQGKKKSKTAVNVLLKPNPLDQTCIHPESYDIAMRFLSSIGGTLYEVGKPEMQQKINSFLEKEGMEKIAERLQTTVHTLQVIIDGLSQPESFDFRTDFDKPDFKRSIVCLEDLQIGTVLTGKVENATLFGIFVDIGVGKSGLIPIRNVTEAKLSKTKKRRSLGLGPGERVEVQVLNIDIPRSRITLDLIRVLEGHHHHHH”, “soluble”; for “MVAKQISKADIHLLRVFCIVVDSQGFSNAQVALNVATSTISRQISELETRLGMRLCDRGRSGFRVTEKGETVYQAAQKLFGALGEFQETVDGSRGRLFGHLALGIIENWASNTSAPIVQALSRFTDLAPDVTIELHSLAPDDIEFAVLDGRVPIGIGVFHSPKPGILYTKVCEERVCLYCGSGHPLFHMTNLEDEERVLRQAQFAKRAYLNEDVVAPKTRNLPSNATAHQMEAIALLILTDKYVGYLPSYFAEEWVAKGRMKIVAGGSFDRPVSVQTATRRGMKLNSVGRTFLDILTAEAVKQGG”, “not soluble”.
As for “MSGNGVKKVAEVAAKAGKAIDWEGMAKMLVSDEARKEFNTLRRTFEDVNHQLQTKFSQEPQPIDWEYYRKGIGSKVVDMYKEAYERTSCFVNPNVNAFCGTVICSEMHVLLCDLVNRSEDTKHEINAGIEIPKYVDTVTPQYKPKFDALLVELKEAEKESLKESERIEKELAELQEMKKNISTMTADEYFAKHPEVKQKFDDEIRNDNWGY”, the “soluble on expression in E. coli” value is on record as “soluble”.
Turning to “SAVDRDIFGISGPTYLNPVNWNCEHNRRSVAACLVQAVYVLERDRQLGRQSVEALGPPWWEFFHFELIRKLVDDADLSIFGAIFEFNPPSSKESSADNAPRFVIAFRGTITEKETISRDIALDLHLVQNGLHRTSRFTIAMQAVQNVASVFPGSNIWLAGHSLGAGMAILTGRNMVKKGVLLESYLFNPPFVAAPIERISDERVKHGFRIARSVITAGLAIAMKGKGEGSSQRSVAEDSFHILSSWTPYLFVNPGDHICSEYIGYFQHRKNMEDLGAGFIEKLATQNSIGDLFYKALGWESEPLHLLPSADLIVNVSPSPDFKYAHGISQWWQPELNLQCSKYRYSVGA”, the “soluble on expression in E. coli” value is reported as “soluble”.
As for “GIDAAEYVLYGGKGGVGKTTCAAATALASARDDTATLVVSTDPAHSLSDTLDADIPATPTRIREDIPLYAAEIDPEAAVGEGPLGVEEDALGGVGELLGGDGMFGGGAGGAAGAGQAEDPIGGEEGLLGGSMPGADEAAALRLLLDYVDDDRFDRVVIDTAPTGHTLRLLELPETMDSMVGKILQLRERFSGMMDNLTGMFGDDQDVDAEAGIEDLQELSDRIEHLRGILQDPQRTDFRIVMVPEELSVVESERLLAQLGEFNIPVSTVVVNRVMQDPSEVLGEDVDIAGPNHADCEFCARRWQVQQDALARSQDMFRGHDVRRVPLFAEEVRGERLLSVVAACLD”, the “soluble on expression in E. coli” value is given as “not soluble”.
Regarding “MAHHHHHHMQTPNSECVGPESPKAGIASSCQGCPNASICASMPKGPDPDIELIRQRLSGVKRTVMVISGKGGVGKSTLTKELAFALGQMGLNVALVDLDICGPSLPRLMGVRGEDAHQSAAGIEPVLVDETVSMISMHYLLGDKNEAVLFRGPRKNGVIKMFLKDVIWGDVDIMLIDTPPGTSDEHITVASILQQCGGVTGAILITTPQLVAEADVKREVKFSHKAKLHLLGIVENMSGFVCPNCKESSVIFPRANSQGAGKRLSDEFGVPFWGEVPLDPVLMKACEEGVSLTDIVDGKSPTIEILQSVAAKLVASLEIE”, the “soluble on expression in E. coli” value is “soluble”.
In the case of “MAHHHHHHMTVNNSNNNNNGERLGSGTARLFVGQLNFDATEHDLRQIFSFYGHVIHTNVLRDADGKSTGSGFVTFRVTDEADFAIMSMHDRYNMGREKPLQVSYCRRSERISPFGYEHAMKLREKNTTNPPPPQPTSS”, the “soluble on expression in E. coli” value is reported as “soluble”.
As to “MGSDKIHHHHHHLSVRATISDSKSDFHKEFPYVIPAIYRKLADELLVELHLLSHQKNFKKDSIFSTGLKEVFSKFTSGYKPSEHATKLFDAICNCNGFNPTEINNSSEQLVSNAKSFTKEDLNSFLSKTNNDNKGYDYYSRINAIGIYKLVSEMPLFKEVKEEDLNKEINDISKSLGYQYSRVEKDISMYKSNIEKMKQALEIIALNLKTK”, the “soluble on expression in E. coli” value is reported as “not soluble”.
As for “MGSDKIHHHHHHMAYTVLLVTSVNTYKEQLNHPIMSDVGKLLPTKIKRVESATDEHSLIKLVQDANVSGEKISIAGMQHSQGGQTYYPHGTMLDMKGYNKILEFDPEKKRITVQSGATWNDIQKKVNPYGLAVQVMQSQNIFTVGGSLSVNVHGRDIRHEALIDTVESFRLLMADGTVRNVSREENADLFPYVIGGYGLFGVILDVTLKLTNDELYETHTKMLDYKEYTSYFKEKVKKDENVRMHLARISVAPNSFFREMYVTDYTLAKNQNMREEYSKLKEETIIAAPKFLLGLSRYSDWGKDTFWDIQRSYFERTDGKYETRNNVMRSDSAFMEYENPNRTEVLQEYFVPIDFFTEYIDDLRNVLNEEEFNLLNITVRYVEKNENAVLSYAKDDMFALVLLINQGRSEHEIKKTENVIQKMIDVTLKHNGSYYLPYYSYPSKEQLRRAYPRIEEFLQKKKEADPKERFVNLFYREYTK”, the “soluble on expression in E. coli” value is “not soluble”.
For “MMKNDEQDDVDVVNVPTNIDFQCNLCEYVGKSDRSLSAHKRHRHPRPEGQEDDKKPRGRPKKYEDSPVPLQRVTTKQLLGGRKRPKTIVECVDDSAIRTDKEASRLHGLGIIDEETSLGDYVRRGANYQLMGGSDMNLDGNSMIVGQEVVIDHEEDEENDDSPMLDSIPAGKNLERRKIRKSGRACASIRLSAKNRQISRSSHMRKVHPNEHAERKRNAPGYNSNGTYNCHFPLCQWRGWSRSTRSTHLRKAHPEWRPDDNRVMTVLSCFYCKSSFHTYAQLADHTITHGGLALMISQSFDNKHHFSAWLQQMERVYSVTFERSEFGSDPELQDLHNYVLHCDCVGGRGEQLATDSRAYIDQKHTNFKFSGAYIYQKHNFLKRRHPQLLTRNKNDCCVHLEVREDSEYGPIHVKGTLEHTGHRFGTPLLRMLFEGFTMDHYTTPRSVILMEPLHTNQFQSLREFIEAPSTSTYQNPYFSVDFGDSPEQFSFGYMSDEMQKLWSKYAPGRTITIDSSPLEFGEVDLFQYSVIVTDENYIPKCAMIYVTTDNSRAPHTILRQMKAVEPRPPTIFMVDPSQLWVELIQDLWPTDLDNPESEVTILISEWTLMDYWAAKTEELVKNEFDVFCIVTALRRMLRVEDAHQLYYTIVELFEAFFECGYDGLAEFFDAQLSDMEYFKRWGPLHRTTLTSHAHPTLGASFRILRDWYLNPANMDHDAPRVDQWFSHICQRIEDFNAITNTQTYTLRPLDPPHKFFYTTVEDEEGEEAEHENPFKNPQILMYDDDGDEVVVEEEIIGHEIDGASELQGSELPDEEVIYETYEDYPEYGGHYDLEEEHKMHHNMRLEEEELQQHLHEQQKPEHLSHQTEELGELQDHHHHHHHHLDEDPEATAEGPSEIVEHDDEEEQEDLVDVEMVDDQHEQHEIPAKIPPHRQRLYQKLDPMPVISHELPRSPSRRIRIPTRKIQELDQESVLPPPPRRETTRSVVRSRKRRDRFAELRDCPPEVMRAIAAHAIAYDGRKKEQRPIVYVPRQAKMAMSSTPTAPTPPEDYDGPPGHQMTTILQHQRQAKQEEEEEQWSGEYDDELHEQEHDPATSSPPPSLLPHTGPSEIVHHEEEVHMMLPEEEADLMDDDDQQPCTSASMYR” the value was “soluble”; for “MTPLKRYQKDIAEHGFQRDEAQHQAVVALDKLYHDIVEFQSAPIPQLSKWQKLMGKKVEMPQPPKGLYFWGGVGRGKTYLMDAFFDALPTDRKMRVHFHRFMYRVHDELKRLGEVENPLSKVADLFKQEADIVCFDEFFVSDITDAMILATLLQEMFKRQMVLVATSNIEPQNLYRNGLQRARFLPAIDMILARCHVLNVDSGVDYRLRTLEQAEIYHYPLDEQASINLNTYYQQLTAERKSVAHKIDINHRQISVIEASDGVLHASFEQLCQTARSQNDYIELSRIYHTVLLADVRQMNRKIDDAARRFIALVDEFYERNVKLIISAEVEMDALYSEGQLEFEFKRCVSRLTEMQSHEYLAREHLALEHHHHHH”, “soluble”.
